Source: publication doi:10.1101/2020.06.04.133876 (bioRxiv, 2020)
Numbering of substitutions follows the chain as printed. In names and notes the source's numbering stands.

B1: GST-OtDUB C-terminal truncation (275-913) (domain or fragment)
chain: SAEVSSKEELYVPKINQVEESLEAQLKYINEHIASQLMQIVKNSNGEIDCNSSNFQEEVSSLLNSRSKETTSLATIEQNFNEIIQQLRKEKVNEERVSAIELQLKANRAVLEAKLSNTEDVKSLVNQKIKEETLQAIPFFGNAAERANFKKHLAHFVKLPDNSYSLLKQKEKRHPFCNIIGANAVKFFSPQSNAVYLNTSAYNQITSGNLKAFEAAVTTDINNLMLKEAAVTIDAVSPNKEAVESGKDLSKTDELAELKEVKSNLETELKILKERLVKKVTSNLETELKFFKGRLVQELMQIVKNENGRIDHTSKNWQESASVLLNSQEKGAVSLAEVERAVSKMTQKLRDQKVSEEEVVNIESKLKFERASLEAKLFDDNEIKELINKRIKEDALRAIPFLGSDSESFMEKISPFVKLPDDSYSLLKANDKHHPFQNILYSNALKFFADSSDIGYLNDDSLKNLTPENLNAFEQAVAADIDKLMSRDVTLNVSDLKSYVANSPNPDLIADYLALEWQIHTPGLKGLYDDLQASHQLQLNELENKHAKQLLSDLANLSKLPSMRGILPEFKDEFYNEIDKKPEERSVEYKNFINKCSELPDAMLQPAKCSAQALLEFNKYERDLNSFKQGVFCAIDNYK
notes: OtDUB (ORF OTT_1962), Orientia tsutsugamushi Ikeda isolate; pGEX6P1 construct; source: E. coli Rosetta DE3, purified (glutathione resin)
B2: OtDUBGEF (residues 548-759), His-tagged construct (domain or fragment)
chain: ERLVKKVTSNLETELKFFKGRLVQELMQIVKNENGRIDHTSKNWQESASVLLNSQEKGAVSLAEVERAVSKMTQKLRDQKVSEEEVVNIESKLKFERASLEAKLFDDNEIKELINKRIKEDALRAIPFLGSDSESFMEKISPFVKLPDDSYSLLKANDKHHPFQNILYSNALKFFADSSDIGYLNDDSLKNLTPENLNAFEQAVAADIDKLM
notes: source: E. coli BL21(DE3), purified (Ni-NTA, Superdex 75)
B3: GST-OtDUBGEF E561A (domain or fragment)
chain: B2 chain with E14A
notes: OtDUB (ORF OTT_1962), Orientia tsutsugamushi Ikeda isolate; also called switch I (E561A) mutant; source: E. coli Rosetta DE3, purified (glutathione resin)
B4: GST-OtDUBGEF N590A/E593A (domain or fragment)
chain: B2 chain with N43A, E46A
notes: OtDUB (ORF OTT_1962), Orientia tsutsugamushi Ikeda isolate; also called switch II (N590A/E593A) mutant; source: E. coli Rosetta DE3, purified (glutathione resin)
B5: Cdc42 (residues 1-177), recombinant (domain or fragment)
chain: not shown

Assays:
[1] = target: T1, Rac1 (residues 1-177), recombinant (human, UniProt P63000 1-177); test: pull-down; GST-tagged OtDUB fragments (20 μM) as bait and Rac1 (60 µM) as prey, 50 mM Tris-HCl pH 7.5, 150 mM NaCl, 0.1 mM TCEP, glutathione resin 1 h at 4°C; Coomassie; details: both partners purified
[2] = target: T1, Rac1 (residues 1-177), recombinant; test: ITC; details: both partners purified
[3] = target: T1, Rac1 (residues 1-177), recombinant; test: cell-based or functional assay
[4] = target: B2; test: ITC; details: both partners purified

Binder | binding result [1] | further results
B1 | binds | –
B2 | – | Kd [2]: ~5 µM; kcat/KM of BODIPY-GDP dissociation from Rac1 with increasing amounts of OtDUBGEF [3]: 260000 M⁻¹ s⁻¹
B3 | binds | –
B4 | binds | –
B5 | – | Kd [4]: ~16 µM
